Test results from publication PMC11408864.

Key:
[1] = target: TDP43 low complexity domain (TDP43-LCD) condensates (UniProt Q13148)
[2] = target: TDP43-LCD condensates, 2% Alexa Fluor 488 labeled (UniProt Q13148)
[3] = target: TDP43 low complexity domain (TDP43-LCD) condensates (UniProt Q13148); test: co-sedimentation; TDP43-LCD condensates (50 μM) mixed with spin-labeled Httex1(Q46)-35R1 monomers (pre-filtered, 100 kD) or fibrils (sonicated, unbundled), 20 μM starting concentration; 123,000g at 4 °C; Httex1 in pellet and supernatant quantified by EPR

Substance	t1/2 of ThT fluorescence of 50 μM TDP43-LCD with 5 μM and 20 μM Httex1(Q46) fibrils (∼4 h and ∼1.5 h; ∼7 h without fibrils) [1]	percent of TDP43-LCD condensates irregularly shaped after 4 h of co-incubation with Httex1(Q46) fibrils (∼10% without fibrils), fluorescence microscopy [2]	concentration of Httex1(Q46) in the pellet [3]
Httex1(Q46) fibrils, Alexa Fluor 594 labeled (domain or fragment)	4 h	60%	
Httex1(Q46)-35R1 monomer (domain or fragment)			< 0.3 µM
